Data as given in patent US20220242906A1 (AGENCY FOR SCIENCE TECHNOLOGY AND RESEARCH, published 2022).

Experiments:
[1] = biological target: T1, elongation initiation factor 4E (eIF4E) (UniProt P06730 2-217, limits assumed); experiment: SPR (Biacore T100), eIF4E immobilised on CM5 chip, peptide as analyte
T1 construct: mature; In SPR it was amine-coupled to a CM5 chip with m7GTP present; also called full-length eIF4E; GS-eIF4E (biotinylated form used only for phage panning)
Procedure: Running buffer consisted of 10 mM Hepes pH 7.6, 0.15 M NaCl, and 0.1% Tween20. Stock/DMSO diluted peptide solutions were diluted into 1.03× running buffer to make a peptide solution with 3% DMSO final concentration. […] Surface Plasmon resonance experiments were performed on a Biacore T100 machine.
Pure eIF4E was immnobilized on a CM5 sensor chip. The CM5 chip was conditioned with a 6 s injection of 100 mM HCL, followed by a 6 s injection of 0.1% SDS and completed with a 6 s injection of 50 mM NaOH at a flow rate of 100 μl/min. Activation of the sensor chip surface was performed with a mixture of NHS (115 mg ml⁻¹) and EDC (750 mg ml⁻¹) for 7 min at 10 μl min⁻¹. Purified eIF4E was diluted with 10 mM sodium acetate buffer (pH 5.0) to a final concentration of 0.5 μM with m⁷GTP present in a 2:1 ratio in order to stabilize eIF4E. The amount of eIF4E immobilized on the activated surface was controlled by altering the contact time of the protein solution and was approximately 1000 RU. After the immobilization of the protein, a 7-min injection (at 10 μl min⁻¹) of 1 M ethanolamine (pH 8.5) was used to quench excess active succinimide ester groups.
Six buffer blanks were first injected to equilibrate the instrument fully and then a solvent correction curve was performed followed by a further two blank injections. […] Using a flow rate of 50 μl/min, compounds were injected for 60 s and dissociation was monitored for 180 s. The data collection rate was 10 Hz. Kds were determined using the BiaEvaluation software (Biacore) and calculated from both the response of the eIF4E coated CM5 chips at equilibrium and also kinetically from the dissociation and association phase data for each of the peptides. Both the equilibrium and kinetic data were fitted to 1:1 binding models. Each individual peptide Kd was determined from three separate titrations. Within each titration at least two concentration points were duplicated to ensure stability and robustness of the chip surface.

[2] = biological target: T1, elongation initiation factor 4E (eIF4E); experiment: competitive fluorescence anisotropy, panel 'Peptide Interaction Site': displacement of the FAM labelled tracer peptide …-(FAM) (50 nM) from eIF4E (200 nM) [cont'd) B]
Procedure: Apparent Kd values were then determined for a variety of molecules via competitive anisotropy experiments.
[L]ₛₜ and [L]ₜ denote labeled ligand and total unlabeled ligand input concentrations, respectively. Kd2 is the dissociation constant of the interaction between the unlabelled ligand and the protein. In all competitive types of experiments, it is assumed that [P]ₜ>[L]ₛₜ, otherwise considerable amounts of free labeled ligand would always be present and would interfere with measurements. Kd1 is the apparent Kd for the labeled peptide used in the respective experiment. […] Readings were carried out with a Envision Multi-label Reader (PerkinElmer). […] All titrations were carried out in triplicate. Curve-fitting was carried out using Prism 4.0 (GraphPad).

T1 sequence (P06730 2-217 limits assumed): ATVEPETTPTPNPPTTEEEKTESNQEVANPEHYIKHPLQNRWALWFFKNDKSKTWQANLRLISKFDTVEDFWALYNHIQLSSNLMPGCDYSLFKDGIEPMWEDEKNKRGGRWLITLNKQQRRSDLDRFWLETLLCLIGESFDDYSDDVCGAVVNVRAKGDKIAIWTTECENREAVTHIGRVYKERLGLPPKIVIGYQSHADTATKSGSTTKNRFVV

| Binder | Kd [1] [nM] | Fold change (KD against EE-2) [1] [fold] | IC50 (read off the curve) [2] [µM] |
| --- | --- | --- | --- |
| ACEXGFFQDCG (HELM PEPTIDE1{A.C.E.[O=C([C@H](CC1CCC1)N[*:1])[*:2]].G.F.F.Q.D.C.G.[am]}$PEPTIDE1,PEPTIDE1,2:R3-10:R3$$$V2.0; SMILES C[C@H](N)C(=O)N[C@H]1CSSC[C@@H](C(=O)NCC(N)=O)NC(=O)[C@H](CC(=O)O)NC(=O)[C@H](CCC(N)=O)NC(=O)[C@H](Cc2ccccc2)NC(=O)[C@H](Cc2ccccc2)NC(=O)CNC(=O)[C@H](CC2CCC2)NC(=O)[C@H](CCC(=O)O)NC1=O, EE-02 with M4 replaced by cyclobutylalanine) [EE-23] | 35000 |  |  |
| ACEXGFFQDCG (norleucine (Nle) at position 4; free N-terminal amine; C-terminal amide; disulphide bond between Cys2 and Cys10, EE-02 with M4 replaced by norleucine) [EE-22] | 520 |  |  |
| CEMGFFADC (HELM PEPTIDE1{C.E.M.G.F.F.A.D.C.[am]}$PEPTIDE1,PEPTIDE1,1:R3-9:R3$$$V2.0; SMILES CSCC[C@@H]1NC(=O)[C@H](CCC(=O)O)NC(=O)[C@@H](N)CSSC[C@@H](C(N)=O)NC(=O)[C@H](CC(=O)O)NC(=O)[C@H](C)NC(=O)[C@H](Cc2ccccc2)NC(=O)[C@H](Cc2ccccc2)NC(=O)CNC1=O, EE-02 without A1 and G11 and with Q8A) [EE-44 (CEMGFFADC)] | 79 | 0.4 |  |
| KKRYSRDQLVAL (Phage-derived linear peptive with the canonical motif; also called PHAGSOL; PhageSol peptide) [PHAGESOL (KKRYSRDQLVAL)] |  |  | ~0.4 |
| ACEMXFFQDCG (sarcosine (Sar) at position 5; free N-terminal amine; C-terminal amide; disulphide bond between Cys2 and Cys10, EE-02 with G5 replaced by sarcosine) [EE-28] | 4200 |  |  |
| ACDMGFFQDCG (HELM PEPTIDE1{A.C.D.M.G.F.F.Q.D.C.G.[am]}$PEPTIDE1,PEPTIDE1,2:R3-10:R3$$$V2.0; SMILES CSCC[C@@H]1NC(=O)[C@H](CC(=O)O)NC(=O)[C@@H](NC(=O)[C@H](C)N)CSSC[C@@H](C(=O)NCC(N)=O)NC(=O)[C@H](CC(=O)O)NC(=O)[C@H](CCC(N)=O)NC(=O)[C@H](Cc2ccccc2)NC(=O)[C@H](Cc2ccccc2)NC(=O)CNC1=O, EE-02 with E3D) [EE-19] | 26000 |  |  |
| ACEMGFWQDCG (HELM PEPTIDE1{A.C.E.M.G.F.W.Q.D.C.G.[am]}$PEPTIDE1,PEPTIDE1,2:R3-10:R3$$$V2.0; SMILES CSCC[C@@H]1NC(=O)[C@H](CCC(=O)O)NC(=O)[C@@H](NC(=O)[C@H](C)N)CSSC[C@@H](C(=O)NCC(N)=O)NC(=O)[C@H](CC(=O)O)NC(=O)[C@H](CCC(N)=O)NC(=O)[C@H](Cc2c[nH]c3ccccc23)NC(=O)[C@H](Cc2ccccc2)NC(=O)CNC1=O, EE-02 with F7W) [EE-36] | 2600 |  |  |
| ACEIGFFQDCG (HELM PEPTIDE1{A.C.E.I.G.F.F.Q.D.C.G.[am]}$PEPTIDE1,PEPTIDE1,2:R3-10:R3$$$V2.0; SMILES CC[C@H](C)[C@@H]1NC(=O)[C@H](CCC(=O)O)NC(=O)[C@@H](NC(=O)[C@H](C)N)CSSC[C@@H](C(=O)NCC(N)=O)NC(=O)[C@H](CC(=O)O)NC(=O)[C@H](CCC(N)=O)NC(=O)[C@H](Cc2ccccc2)NC(=O)[C@H](Cc2ccccc2)NC(=O)CNC1=O, EE-02 with M4I) [EE-20] | 1600 |  |  |
| ACEMGFFGDCG (HELM PEPTIDE1{A.C.E.M.G.F.F.G.D.C.G.[am]}$PEPTIDE1,PEPTIDE1,2:R3-10:R3$$$V2.0; SMILES CSCC[C@@H]1NC(=O)[C@H](CCC(=O)O)NC(=O)[C@@H](NC(=O)[C@H](C)N)CSSC[C@@H](C(=O)NCC(N)=O)NC(=O)[C@H](CC(=O)O)NC(=O)CNC(=O)[C@H](Cc2ccccc2)NC(=O)[C@H](Cc2ccccc2)NC(=O)CNC1=O, EE-02 with Q8G) [EE-40] | 400 | 1.9 |  |
| ACELGFFQDCG (HELM PEPTIDE1{A.C.E.L.G.F.F.Q.D.C.G.[am]}$PEPTIDE1,PEPTIDE1,2:R3-10:R3$$$V2.0; SMILES CC(C)C[C@@H]1NC(=O)[C@H](CCC(=O)O)NC(=O)[C@@H](NC(=O)[C@H](C)N)CSSC[C@@H](C(=O)NCC(N)=O)NC(=O)[C@H](CC(=O)O)NC(=O)[C@H](CCC(N)=O)NC(=O)[C@H](Cc2ccccc2)NC(=O)[C@H](Cc2ccccc2)NC(=O)CNC1=O, EE-02 with M4L) [EE-21] | 2500 |  |  |
| ACEMGYFQDCG (HELM PEPTIDE1{A.C.E.M.G.Y.F.Q.D.C.G.[am]}$PEPTIDE1,PEPTIDE1,2:R3-10:R3$$$V2.0; SMILES CSCC[C@@H]1NC(=O)[C@H](CCC(=O)O)NC(=O)[C@@H](NC(=O)[C@H](C)N)CSSC[C@@H](C(=O)NCC(N)=O)NC(=O)[C@H](CC(=O)O)NC(=O)[C@H](CCC(N)=O)NC(=O)[C@H](Cc2ccccc2)NC(=O)[C@H](Cc2ccc(O)cc2)NC(=O)CNC1=O, EE-02 with F6Y) [EE-30 (ACEMGYFQDCG)] | 85 |  |  |
| ACEMGWFQDCG (HELM PEPTIDE1{A.C.E.M.G.W.F.Q.D.C.G.[am]}$PEPTIDE1,PEPTIDE1,2:R3-10:R3$$$V2.0; SMILES CSCC[C@@H]1NC(=O)[C@H](CCC(=O)O)NC(=O)[C@@H](NC(=O)[C@H](C)N)CSSC[C@@H](C(=O)NCC(N)=O)NC(=O)[C@H](CC(=O)O)NC(=O)[C@H](CCC(N)=O)NC(=O)[C@H](Cc2ccccc2)NC(=O)[C@H](Cc2c[nH]c3ccccc23)NC(=O)CNC1=O, EE-02 with F6W) [EE-31] | 5900 |  |  |
| ACEMGFFLDCG (HELM PEPTIDE1{A.C.E.M.G.F.F.L.D.C.G.[am]}$PEPTIDE1,PEPTIDE1,2:R3-10:R3$$$V2.0; SMILES CSCC[C@@H]1NC(=O)[C@H](CCC(=O)O)NC(=O)[C@@H](NC(=O)[C@H](C)N)CSSC[C@@H](C(=O)NCC(N)=O)NC(=O)[C@H](CC(=O)O)NC(=O)[C@H](CC(C)C)NC(=O)[C@H](Cc2ccccc2)NC(=O)[C@H](Cc2ccccc2)NC(=O)CNC1=O, EE-02 with Q8L) [EE-41 (ACEMGFFLDCG)] | 190 | 0.9 |  |
| ACEMGYYQDCG (HELM PEPTIDE1{A.C.E.M.G.Y.Y.Q.D.C.G.[am]}$PEPTIDE1,PEPTIDE1,2:R3-10:R3$$$V2.0; SMILES CSCC[C@@H]1NC(=O)[C@H](CCC(=O)O)NC(=O)[C@@H](NC(=O)[C@H](C)N)CSSC[C@@H](C(=O)NCC(N)=O)NC(=O)[C@H](CC(=O)O)NC(=O)[C@H](CCC(N)=O)NC(=O)[C@H](Cc2ccc(O)cc2)NC(=O)[C@H](Cc2ccc(O)cc2)NC(=O)CNC1=O, EE-02 with F6Y and F7Y) [EE-37] | 350 |  |  |
| ACEMGFYQDCG (HELM PEPTIDE1{A.C.E.M.G.F.Y.Q.D.C.G.[am]}$PEPTIDE1,PEPTIDE1,2:R3-10:R3$$$V2.0; SMILES CSCC[C@@H]1NC(=O)[C@H](CCC(=O)O)NC(=O)[C@@H](NC(=O)[C@H](C)N)CSSC[C@@H](C(=O)NCC(N)=O)NC(=O)[C@H](CC(=O)O)NC(=O)[C@H](CCC(N)=O)NC(=O)[C@H](Cc2ccc(O)cc2)NC(=O)[C@H](Cc2ccccc2)NC(=O)CNC1=O, EE-02 with F7Y) [EE-35 (ACEMGFYQDCG)] | 137 |  |  |
| ACEMGFFKDCG (HELM PEPTIDE1{A.C.E.M.G.F.F.K.D.C.G.[am]}$PEPTIDE1,PEPTIDE1,2:R3-10:R3$$$V2.0; SMILES CSCC[C@@H]1NC(=O)[C@H](CCC(=O)O)NC(=O)[C@@H](NC(=O)[C@H](C)N)CSSC[C@@H](C(=O)NCC(N)=O)NC(=O)[C@H](CC(=O)O)NC(=O)[C@H](CCCCN)NC(=O)[C@H](Cc2ccccc2)NC(=O)[C@H](Cc2ccccc2)NC(=O)CNC1=O, EE-02 with Q8K) [EE-39 (ACEMGFFKDCG)] | 109 | 0.5 |  |
